Experimental findings from PMC9909325, “Crystal structure of the phosphorylated Arabidopsis MKK5 reveals activation mechanism of MAPK kinases” (Acta Biochimica et Biophysica Sinica, 2022) are described below.

The target of one series is T1, AtMKK5-KD (Arabidopsis thaliana, UniProt Q8RXG3).
T1 construct: gene MKK5; kinase domain, residues 62-335, N-terminal His6-tag, pET28b, E. coli BL21(DE3); phosphorylated at Ser66, Thr83, Thr108, Thr215, Ser221
T1 sequence (Q8RXG3 62-335): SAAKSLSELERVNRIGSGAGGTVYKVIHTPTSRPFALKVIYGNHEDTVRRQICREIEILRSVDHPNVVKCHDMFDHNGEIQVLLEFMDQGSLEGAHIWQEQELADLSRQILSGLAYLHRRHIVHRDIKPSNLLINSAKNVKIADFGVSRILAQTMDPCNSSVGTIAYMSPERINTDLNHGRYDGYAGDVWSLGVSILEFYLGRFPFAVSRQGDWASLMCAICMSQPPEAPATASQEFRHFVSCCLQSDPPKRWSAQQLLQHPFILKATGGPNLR
The series is described as follows: PK/LDH-coupled NADH oxidation at […] nm (ATPase). It is filed as biochemical. Particulars: 1 mM ATP, 20 nM phosphorylated kinase domain; 10 mM MgCl2, pH 7.0, 25 °C.

Series [1] concerns the target AtMPK6(K92M) (Arabidopsis thaliana) (UniProt Q39026).
Substrate in the series “purified protein”: Nc1ncnc2c1ncn2[C@@H]1O[C@H](COP(=O)(O)OP(=O)(O)OP(=O)(O)O)[C@@H](O)[C@H]1O
The series is described as follows: purified protein. The format is biochemical, Arabidopsis thaliana. The conditions noted are these: no protein substrate, 10 mM MgCl2, 50 mM MOPS pH 7.0, 100 mM NaCl, 25 °C, phosphorylated enzyme 20 nM.

Sequence of AtMPK6(K92M) (Arabidopsis thaliana) (Q39026 whole entry K92M): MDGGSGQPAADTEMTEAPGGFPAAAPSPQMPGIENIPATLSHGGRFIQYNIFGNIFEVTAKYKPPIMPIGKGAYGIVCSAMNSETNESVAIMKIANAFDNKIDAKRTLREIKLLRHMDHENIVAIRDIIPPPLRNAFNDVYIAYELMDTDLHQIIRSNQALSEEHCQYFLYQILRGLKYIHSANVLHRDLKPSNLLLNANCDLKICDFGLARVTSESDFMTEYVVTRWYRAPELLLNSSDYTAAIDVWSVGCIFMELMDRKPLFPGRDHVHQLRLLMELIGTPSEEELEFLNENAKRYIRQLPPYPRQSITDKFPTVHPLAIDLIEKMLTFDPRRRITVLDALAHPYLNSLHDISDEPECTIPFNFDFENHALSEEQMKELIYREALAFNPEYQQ

On to `Nc1ncnc2c1ncn2[C@@H]1O[C@H](COP(=O)(O)OP(=O)(O)OP(=O)(O)O)[C@@H](O)[C@H]1O` [ATP], for which the “PK/LDH-coupled NADH oxidation at 340 nm (ATPase)” value on AtMKK5-KD is recorded as “examined their effects on the catalytic function of AtMKK5-KD”.

B1: AtMKK5 RRKR4A (full length; Arg17, Arg19, Lys20 and Arg21 all replaced by Ala) (enzyme)
chain: MKPIQSPSGVASPMKNALAAAPDLSLPLPHRDVALAVPLPLPPPSSSSSAPASSSAISTNISAAKSLSELERVNRIGSGAGGTVYKVIHTPTSRPFALKVIYGNHEDTVRRQICREIEILRSVDHPNVVKCHDMFDHNGEIQVLLEFMDQGSLEGAHIWQEQELADLSRQILSGLAYLHRRHIVHRDIKPSNLLINSAKNVKIADFGVSRILAQTMDPCNSSVGTIAYMSPERINTDLNHGRYDGYAGDVWSLGVSILEFYLGRFPFAVSRQGDWASLMCAICMSQPPEAPATASQEFRHFVSCCLQSDPPKRWSAQQLLQHPFILKATGGPNLRQMLPPPRPLPSAS
modifications: phosphorylated at Ser/Thr residues (signals similar to the wild type; sites not stated)
With B1, the decrease of AtMPK6(K92M) phosphorylation activity against wild-type AtMKK5, coupled spectrophotometric assay (20 nM AtMKK5, 1 mM ATP, 1 μM AtMPK6(K92M)) (fold decrease) in series [1] was 25.

B2: AtMKK5 R19A (full length) (enzyme)
chain: MKPIQSPSGVASPMKNRLAKRPDLSLPLPHRDVALAVPLPLPPPSSSSSAPASSSAISTNISAAKSLSELERVNRIGSGAGGTVYKVIHTPTSRPFALKVIYGNHEDTVRRQICREIEILRSVDHPNVVKCHDMFDHNGEIQVLLEFMDQGSLEGAHIWQEQELADLSRQILSGLAYLHRRHIVHRDIKPSNLLINSAKNVKIADFGVSRILAQTMDPCNSSVGTIAYMSPERINTDLNHGRYDGYAGDVWSLGVSILEFYLGRFPFAVSRQGDWASLMCAICMSQPPEAPATASQEFRHFVSCCLQSDPPKRWSAQQLLQHPFILKATGGPNLRQMLPPPRPLPSAS
modifications: phosphorylated at Ser/Thr residues (signals similar to the wild type; sites not stated)
As to B2, in series [1], the decrease of AtMPK6(K92M) phosphorylation activity against wild-type AtMKK5, coupled spectrophotometric assay (20 nM AtMKK5, 1 mM ATP, 1 μM AtMPK6(K92M)) (fold decrease) turned out to be 3.

B3: AtMKK5 K20A (full length) (enzyme)
chain: MKPIQSPSGVASPMKNRLRARPDLSLPLPHRDVALAVPLPLPPPSSSSSAPASSSAISTNISAAKSLSELERVNRIGSGAGGTVYKVIHTPTSRPFALKVIYGNHEDTVRRQICREIEILRSVDHPNVVKCHDMFDHNGEIQVLLEFMDQGSLEGAHIWQEQELADLSRQILSGLAYLHRRHIVHRDIKPSNLLINSAKNVKIADFGVSRILAQTMDPCNSSVGTIAYMSPERINTDLNHGRYDGYAGDVWSLGVSILEFYLGRFPFAVSRQGDWASLMCAICMSQPPEAPATASQEFRHFVSCCLQSDPPKRWSAQQLLQHPFILKATGGPNLRQMLPPPRPLPSAS
modifications: phosphorylated at Ser/Thr residues (signals similar to the wild type; sites not stated)
As to B3, the decrease of AtMPK6(K92M) phosphorylation activity against wild-type AtMKK5, coupled spectrophotometric assay (20 nM AtMKK5, 1 mM ATP, 1 μM AtMPK6(K92M)) (fold decrease) in series [1] came to 3.

B4: AtMKK5 L28A (full length) (enzyme)
chain: MKPIQSPSGVASPMKNRLRKRPDLSLPAPHRDVALAVPLPLPPPSSSSSAPASSSAISTNISAAKSLSELERVNRIGSGAGGTVYKVIHTPTSRPFALKVIYGNHEDTVRRQICREIEILRSVDHPNVVKCHDMFDHNGEIQVLLEFMDQGSLEGAHIWQEQELADLSRQILSGLAYLHRRHIVHRDIKPSNLLINSAKNVKIADFGVSRILAQTMDPCNSSVGTIAYMSPERINTDLNHGRYDGYAGDVWSLGVSILEFYLGRFPFAVSRQGDWASLMCAICMSQPPEAPATASQEFRHFVSCCLQSDPPKRWSAQQLLQHPFILKATGGPNLRQMLPPPRPLPSAS
modifications: phosphorylated at Ser/Thr residues (signals similar to the wild type; sites not stated)
Regarding B4, the decrease of AtMPK6(K92M) phosphorylation activity against wild-type AtMKK5, coupled spectrophotometric assay (20 nM AtMKK5, 1 mM ATP, 1 μM AtMPK6(K92M)) (fold decrease) in series [1] was found to be 10.

B5: AtMKK5 LLL3A (full length; Leu24, Leu26 and Leu28 all replaced by Ala) (enzyme)
chain: MKPIQSPSGVASPMKNRLRKRPDASAPAPHRDVALAVPLPLPPPSSSSSAPASSSAISTNISAAKSLSELERVNRIGSGAGGTVYKVIHTPTSRPFALKVIYGNHEDTVRRQICREIEILRSVDHPNVVKCHDMFDHNGEIQVLLEFMDQGSLEGAHIWQEQELADLSRQILSGLAYLHRRHIVHRDIKPSNLLINSAKNVKIADFGVSRILAQTMDPCNSSVGTIAYMSPERINTDLNHGRYDGYAGDVWSLGVSILEFYLGRFPFAVSRQGDWASLMCAICMSQPPEAPATASQEFRHFVSCCLQSDPPKRWSAQQLLQHPFILKATGGPNLRQMLPPPRPLPSAS
modifications: phosphorylated at Ser/Thr residues (signals similar to the wild type; sites not stated)
Consider B5, for which the drop of the initial velocity of AtMPK6(K92M) phosphorylation against wild-type AtMKK5, coupled spectrophotometric assay (20 nM AtMKK5, 1 mM ATP, 1 μM AtMPK6(K92M)) (fold decrease) in series [1] is 90.

B6: AtMKK5 (full-length, phosphorylated; p-AtMKK5) (Arabidopsis thaliana) (protein)
chain: MKPIQSPSGVASPMKNRLRKRPDLSLPLPHRDVALAVPLPLPPPSSSSSAPASSSAISTNISAAKSLSELERVNRIGSGAGGTVYKVIHTPTSRPFALKVIYGNHEDTVRRQICREIEILRSVDHPNVVKCHDMFDHNGEIQVLLEFMDQGSLEGAHIWQEQELADLSRQILSGLAYLHRRHIVHRDIKPSNLLINSAKNVKIADFGVSRILAQTMDPCNSSVGTIAYMSPERINTDLNHGRYDGYAGDVWSLGVSILEFYLGRFPFAVSRQGDWASLMCAICMSQPPEAPATASQEFRHFVSCCLQSDPPKRWSAQQLLQHPFILKATGGPNLRQMLPPPRPLPSAS
notes: full-length (348 residues), N-terminal His6-tag, pET28b, E. coli BL21(DE3); phosphorylated at Ser/Thr as purified
Consider B6, for which, in “purified protein”, the Km turned out to be 96.2 ± 3.5 µM and the kcat was determined as 1.96 ± 0.02 s⁻¹.

B7: AtMKK5 L26A (full length) (enzyme)
chain: MKPIQSPSGVASPMKNRLRKRPDLSAPLPHRDVALAVPLPLPPPSSSSSAPASSSAISTNISAAKSLSELERVNRIGSGAGGTVYKVIHTPTSRPFALKVIYGNHEDTVRRQICREIEILRSVDHPNVVKCHDMFDHNGEIQVLLEFMDQGSLEGAHIWQEQELADLSRQILSGLAYLHRRHIVHRDIKPSNLLINSAKNVKIADFGVSRILAQTMDPCNSSVGTIAYMSPERINTDLNHGRYDGYAGDVWSLGVSILEFYLGRFPFAVSRQGDWASLMCAICMSQPPEAPATASQEFRHFVSCCLQSDPPKRWSAQQLLQHPFILKATGGPNLRQMLPPPRPLPSAS
modifications: phosphorylated at Ser/Thr residues (signals similar to the wild type; sites not stated)
For B7, in series [1], the decrease of AtMPK6(K92M) phosphorylation activity against wild-type AtMKK5, coupled spectrophotometric assay (20 nM AtMKK5, 1 mM ATP, 1 μM AtMPK6(K92M)) (fold decrease) worked out at 10.

B8: AtMKK5 L24A (full length) (enzyme)
chain: MKPIQSPSGVASPMKNRLRKRPDASLPLPHRDVALAVPLPLPPPSSSSSAPASSSAISTNISAAKSLSELERVNRIGSGAGGTVYKVIHTPTSRPFALKVIYGNHEDTVRRQICREIEILRSVDHPNVVKCHDMFDHNGEIQVLLEFMDQGSLEGAHIWQEQELADLSRQILSGLAYLHRRHIVHRDIKPSNLLINSAKNVKIADFGVSRILAQTMDPCNSSVGTIAYMSPERINTDLNHGRYDGYAGDVWSLGVSILEFYLGRFPFAVSRQGDWASLMCAICMSQPPEAPATASQEFRHFVSCCLQSDPPKRWSAQQLLQHPFILKATGGPNLRQMLPPPRPLPSAS
modifications: phosphorylated at Ser/Thr residues (signals similar to the wild type; sites not stated)
B8 showed a decrease of AtMPK6(K92M) phosphorylation activity against wild-type AtMKK5, coupled spectrophotometric assay (20 nM AtMKK5, 1 mM ATP, 1 μM AtMPK6(K92M)) (fold decrease) in series [1] of 10.

B9: AtMKK5 R21A (full length) (enzyme)
chain: MKPIQSPSGVASPMKNRLRKAPDLSLPLPHRDVALAVPLPLPPPSSSSSAPASSSAISTNISAAKSLSELERVNRIGSGAGGTVYKVIHTPTSRPFALKVIYGNHEDTVRRQICREIEILRSVDHPNVVKCHDMFDHNGEIQVLLEFMDQGSLEGAHIWQEQELADLSRQILSGLAYLHRRHIVHRDIKPSNLLINSAKNVKIADFGVSRILAQTMDPCNSSVGTIAYMSPERINTDLNHGRYDGYAGDVWSLGVSILEFYLGRFPFAVSRQGDWASLMCAICMSQPPEAPATASQEFRHFVSCCLQSDPPKRWSAQQLLQHPFILKATGGPNLRQMLPPPRPLPSAS
modifications: phosphorylated at Ser/Thr residues (signals similar to the wild type; sites not stated)
As to B9, the decrease of AtMPK6(K92M) phosphorylation activity against wild-type AtMKK5, coupled spectrophotometric assay (20 nM AtMKK5, 1 mM ATP, 1 μM AtMPK6(K92M)) (fold decrease) in series [1] came out at 3.

Usually Km stands for the substrate concentration at which the rate is half of its maximum. In general, kcat refers to the number of substrate molecules converted per active site and unit of time at saturation.
